Experimental data from paper PMC3436577 (The Journal of Biological Chemistry, 2012).

Key:
Assay in all cases: pull-down
c/Nip1-His Box12-WWPW = c/Nip1-His Box12-WWPW (S. cerevisiae, UniProt P32497 1-812, V111W | V112W | K116P | K118W)
c/Nip1-His Box15-2 = c/Nip1-His Box15-2 (S. cerevisiae, UniProt P32497 1-812, I142V | E145W | F146T | D147L | I149R)
[1] = molecular target: c/Nip1-His GAP85 (Δ60–144) (S. cerevisiae, UniProt P32497 1-812, Δ60–144)
GST-eIF1 = GST-eIF1 (S. cerevisiae, UniProt P32911 1-108)
Sequence of GST-eIF1 (P32911 whole entry): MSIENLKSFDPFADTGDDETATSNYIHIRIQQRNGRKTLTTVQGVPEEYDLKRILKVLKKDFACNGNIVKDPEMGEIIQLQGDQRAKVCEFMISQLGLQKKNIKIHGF

B1: eIF5 (natural protein)
chain: MSINICRDNHDPFYRYKMPPIQAKVEGRGNGIKTAVLNVADISHALNRPAPYIVKYFGFELGAQTSISVDKDRYLVNGVHEPAKLQDVLDGFINKFVLCGSCKNPETEIIITKDNDLVRDCKACGKRTPMDLRHKLSSFILKNPPDSVSGSKKKKKAATASANVRGGGLSISDIAQGKSQNAPSDGTGSSTPQHHDEDEDELSRQIKAAASTLEDIEVKDDEWAVDMSEEAIRARAKELEVNSELTQLDEYGEWILEQAGEDKENLPSDVELYKKAAELDVLNDPKIGCVLAQCLFDEDIVNEIAEHNAFFTKILVTPEYEKNFMGGIERFLGLEHKDLIPLLPKILVQLYNNDIISEEEIMRFGTKSSKKFVPKEVSKKVRRAAKPFITWLETAESDDDEEDDE
reduction of eIF5 associated in vivo, relative to WT c/Nip1-His (c/Nip1-His Box12-WWPW): ~30% | reduction of eIF5 associated in vivo, relative to WT c/Nip1-His (c/Nip1-His Box15-2): > 60% | reduction of eIF5 associated in vivo, relative to WT c/Nip1-His [1]: > 60%

B2: c/Nip1-NTD (1–270) Box12-SPW (domain or fragment)
chain: MSRFFSSNYEYDVASSSSEEDLLSSSEEDLLSSSSSESELDQESDDSFFNESESESEADVDSDDSDAKPYGPDWFKKSEFRKQGGGSNKFLKSSNYDSSDEESDEEDGKKVVSSAPEWLLDEMQDVYNKISQAENSDDWLTISNEFDLISRLLVRAQQQNWGTPNIFIKVVAQVEDAVNNTQQADLKNKAVARAYNTTKQRVKKVSRENEDSMAKFRNDPESFDKEPTADLDISANGFTISSSQGNDQAVQEDFFTRLQTIIDSRGKKTV
modifications: 35S-labeled
fold increase in binding relative to the WT c/Nip1-NTD (GST-eIF1): ~2 fold
